Source: patent US20160354479A1 (ESBATECH AN ALCON BIOMEDICAL RESEARCH UNIT, published 2016)
One block for each binder: values may come before it.

Tests used:
[1] = molecular target: T1, recombinant human VEGF165 (human, UniProt P15692-4 27-191); assay: SPR, BIAcore T100, hVEGF165 immobilized
T1 construct: Amine-coupled to a CM4 sensor chip; also called hVEGF165
Source text: (§1) For binding affinity measurements, surface Plasmon resonance measurements with BIAcore™-T100 were employed. In these experiments, purified Escherichia coli-expressed recombinant human VEGF₁₆₅ (PeproTech EC Ltd) was used. Carboxymethylated dextran biosensor chips (CM4, GE Healthcare) were activated with N-ethyl-N′-(3-dimethylaminopropyl)carbodiimide hydrochloride and N-hydroxysuccinimide according to the supplier's instructions. Human VEGF₁₆₅ was coupled to 1 of the 4 different flow cells on a CM4 sensor chip using a standard amine-coupling procedure. The range of responses obtained with the immobilized hVEGF₁₆₅ molecule after coupling and blocking was approximately 120-140 response units (RU). The 4th flow cell of each chip was treated similarly except no proteins were immobilized prior to blocking, and the flow cell was used as in-line reference. Various concentrations of anti-VEGF scFvs (20 nM, 10 nM, 5 nM, 2.5 nM, 1.25 nM, 0.63 nM, 0.31 nM and 0.16 nM) in HBS-EP buffer (0.01 M HEPES, pH 7.4, 0.15 M NaCl, 3 mM EDTA, 0.005% surfactant P20) were injected into the flow cells at a flow rate of 30 μl/min for 5 min. […] The apparent dissociation rate constant (kd), the apparent association rate constant (kₐ) and the apparent dissociation equilibrium constant (KD) were calculated using one-to-one Langmuir binding model with BlAcore T100 evaluation Software version 1.1.

[2] = molecular target: T1, recombinant human VEGF165; assay: SPR, BIAcore T100, hVEGF165 immobilized, 1:1 fit (FIG. 7B)
Source text: as §1

[3] = molecular target: T1, recombinant human VEGF165; assay: SPR, BIAcore T100, hVEGF165 immobilized, 1:1 fit (FIG. 7A)
Source text: For binding affinity measurements, surface Plasmon resonance measurements with BIAcore™-T100 were employed. In these experiments, purified Escherichia coli-expressed recombinant human VEGF₁₆₅ (PeproTech EC Ltd) was used. Carboxymethylated dextran biosensor chips (CM4, GE Healthcare) were activated with N-ethyl-N′-(3-dimethylaminopropyl)carbodiimide hydrochloride and N-hydroxysuccinimide according to the supplier's instructions. Human VEGF₁₆₅ was coupled to 1 of the 4 different flow cells on a CM4 sensor chip using a standard amine-coupling procedure. The range of responses obtained with the immobilized hVEGF₁₆₅ molecule after coupling and blocking was approximately 120-140 response units (RU). The 4th flow cell of each chip was treated similarly except no proteins were immobilized prior to blocking, and the flow cell was used as in-line reference. Various concentrations of anti-VEGF scFvs (20 nM, 10 nM, 5 nM, 2.5 nM, 1.25 nM, 0.63 nM, 0.31 nM and 0.16 nM) in HBS-EP buffer (0.01 M HEPES, pH 7.4, 0.15 M NaCl, 3 mM EDTA, 0.005% surfactant P20) were injected into the flow cells at a flow rate of 30 μl/min for 5 min. Dissociation of the anti-VEGF scFv from the VEGF on the CM4 chip was allowed to proceed for 10 min at 25° C. Sensorgrams were generated for each anti-VEGF scFv sample after in-line reference cell correction followed by buffer sample subtraction. The apparent dissociation rate constant (kd), the apparent association rate constant (kₐ) and the apparent dissociation equilibrium constant (KD) were calculated using one-to-one Langmuir binding model with BlAcore T100 evaluation Software version 1.1.

Human TNF alpha = molecular target: T2, Human TNF alpha (human, UniProt P01375 77-233); assay: direct ELISA on coated human TNF alpha, detection with biotinylated rabbit anti-ESBA105 antibody and streptavidin poly-HRP, OD 450 nm
T2 construct: Coated on the ELISA plate
Description: Binding of ESBA105 and its derivatives was assessed by a direct ELISA. Human TNF alpha (PeproTech EC Ltd) was coated on a 96-well microtitre plate and then blocked using BSA (bovine serum albumin). ESBA105 and ESBA105 derivates were tested at concentrations of 50 nM, 12.5 nM, 3.13 nM, 1.56 nM, 0.78 nM, 0.39 nM, 0.20 nM, 0.10 nM and 0.05 nM. Binding of ESBA105 and its derivatives to human TNF alpha was visualized by the subsequent addition of a biotinylated rabbit polyclonal anti-ESBA105 antibody (AK3A, generated at ESBATech), streptavidin Poly HRP and a chromogenic substrate (POD). The product of this reaction was detected by measurement of the optical densitiy (OD) at […] using a spectrophotometer. Data were analyzed using a 4-parameter logistic curve fit, and EC₅₀ values were calculated from the dose-response curves of the scFvs.

T1 sequence (P15692 other isoform, or with tags, fused parts or gaps limits assumed): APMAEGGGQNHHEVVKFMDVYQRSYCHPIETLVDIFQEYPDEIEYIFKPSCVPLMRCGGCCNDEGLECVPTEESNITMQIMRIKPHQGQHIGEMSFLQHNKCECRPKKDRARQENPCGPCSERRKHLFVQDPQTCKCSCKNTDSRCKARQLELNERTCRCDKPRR
T2 sequence (P01375 77-233 limits assumed): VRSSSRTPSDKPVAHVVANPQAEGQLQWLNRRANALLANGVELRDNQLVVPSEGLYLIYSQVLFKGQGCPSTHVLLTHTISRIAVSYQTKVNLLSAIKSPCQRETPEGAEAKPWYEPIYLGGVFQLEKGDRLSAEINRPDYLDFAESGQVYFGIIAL

Kd [1]: 44.4 pM
koff [2]: 5.03e-05 s⁻¹
kon [2]: 1.13e+06 M⁻¹ s⁻¹
B1: ESBA903 SS Pep1 linker (scFv)
scFv: MEIVMTQSPSTLSASVGDRVIITCQASEIIHSWLAWYQQKPGKAPKLLIYLASTLASGVPSRFSGSGSGAEFTLTISSLQPDDFATYYCQNVYLASTNGANFGQGTKLTVLGGGGGSGGGGSCGAHWQFNALTVRCGGGGSGGGGSEVQLVESGGGLVQPGGSLRLSCTASGFSLTDYYYMTWVRQAPGKGLEWVGFIDPDDDPYYATWAKGRFTISRDTSKNTVYLQMNSLRAEDTAVYYCAGGDHNSGWGLDIWGQGTLVTVSS
notes: also called ESBA903-Pep1

Kd [3]: 56.1 pM
koff [3]: 4.31e-05 s⁻¹
kon [3]: 768000 M⁻¹ s⁻¹
B2: ESBA903 (scFv)
scFv: MEIVMTQSPSTLSASVGDRVIITCQASEIIHSWLAWYQQKPGKAPKLLIYLASTLASGVPSRFSGSGSGAEFTLTISSLQPDDFATYYCQNVYLASTNGANFGQGTKLTVLGGGGGSGGGGSGGGGSGGGGSEVQLVESGGGLVQPGGSLRLSCTASGFSLTDYYYMTWVRQAPGKGLEWVGFIDPDDDPYYATWAKGRFTISRDTSKNTVYLQMNSLRAEDTAVYYCAGGDHNSGWGLDIWGQGTLVTVSS
notes: Anti-VEGF scFv; also called ESBA903 Normal linker; unmodified ESBA903

EC50 (read off the curve) (Human TNF alpha): ~1000 pM
B3: ESBA105-SS-linker (scFv)
scFv: MADIVMTQSPSSLSASVGDRVTLTCTASQSVSNDVVWYQQRPGKAPKLLIYSAFNRYTGVPSRFSGRGYGTDFTLTISSLQPEDVAVYYCQQDYNSPRTFGQGTKLEVKRGGGGSGGGGSCGGGSGGGCGGGGSGGGGSQVQLVQSGAEVKKPGASVKVSCTASGYTFTHYGMNWVRQAPGKGLEWMGWINTYTGEPTYADKFKDRFTFSLETSASTVYMELTSLTSDDTAVYYCARERGDAMDYWGQGTLVTVSS
notes: un-pegylated

EC50 (read off the curve) (Human TNF alpha): ~1000 pM
B4: ESBA105 (scFv)
scFv: MADIVMTQSPSSLSASVGDRVTLTCTASQSVSNDVVWYQQRPGKAPKLLIYSAFNRYTGVPSRFSGRGYGTDFTLTISSLQPEDVAVYYCQQDYNSPRTFGQGTKLEVKRGGGGSGGGGSGGGGSSGGGSQVQLVQSGAEVKKPGASVKVSCTASGYTFTHYGMNWVRQAPGKGLEWMGWINTYTGEPTYADKFKDRFTFSLETSASTVYMELTSLTSDDTAVYYCARERGDAMDYWGQGTLVTVSS
notes: Untreated scFv (VL-linker-VH), made in E. coli; also called ESBA105 Normal linker; naked ESBA105
